Molecular target: the molecule itself
Assay: cryo-electron tomography

B1: Munc13C K1494D/K1495D/K1500D (trimer 3xD) (domain or fragment)
chain: not shown
stoichiometry N: 6

Reference: paper PMC12325603 (Nature Communications, 2025)
